Measurements published in publication PMC4099074, “Palmitoylation of Gephyrin Controls Receptor Clustering and Plasticity of GABAergic Synapses” (PLoS Biology, 2014).
Values joined by “and” are separate entries in the source; they are usually repeats but may differ in a detail not shown here. Equal values may be shown once.

Biological target: the molecule itself
Experiment: SEC; lysates of control and 2-BP-treated primary hippocampal neurons; fifteen fractions immunoblotted for gephyrin and PSD-95; reference proteins for size

B1: gephyrin, endogenous in primary hippocampal neurons (natural protein, UniProt Q8BUV3 1-769, looked up)
chain: MATEGMILTNHDHQIRVGVLTVSDSCFRNLAEDRSGINLKDLVQDPSLLGGTISAYKIVPDEIEEIKETLIDWCDEKELNLILTTGGTGFAPRDVTPEATKEVIEREAPGMALAMLMGSLNVTPLGMLSRPVCGIRGKTLIINLPGSKKGSQECFQFILPALPHAIDLLRDAIVKVKEVHDELEDLPSPPPPLSPPPTTSPHKQTEDKGVQCEEEEEEKKDSGVASTEDSSSSHITAAALAAKIPDSIISRGVQVLPRDTASLSTTPSESPRAQATSRLSTASCPTPKQIRRPDESKGVASRVGSLKARLPSCSSTYSVSEVQSRCSSKENILRASHSAVDITKVARRHRMSPFPLTSMDKAFITVLEMTPVLGTEIINYRDGMGRVLAQDVYAKDNLPPFPASVKDGYAVRAADGPGDRFIIGESQAGEQPTQTVMPGQVMRVTTGAPIPCGADAVVQVEDTELIRESDDGTEELEVRILVQARPGQDIRPIGHDIKRGECVLAKGTHMGPSEIGLLATVGVTEVEVNKFPVVAVMSTGNELLNPEDDLLPGKIRDSNRSTLLATIQEHGYPTINLGIVGDNPDDLLNALNEGISRADVIITSGGVSMGEKDYLKQVLDIDLHAQIHFGRVFMKPGLPTTFATLDIDGVRKIIFALPGNPVSAVVTCNLFVVPALRKMQGILDPRPTIIKARLSCDVKLDPRPEYHRCILTWHHQEPLPWAQSTGNQMSSRLMSMRSANGLLMLPPKTEQYVELHKGEVVDVMVIGRL
notes: gephyrin, endogenous; A fraction of it is palmitoylated on Cys212 and Cys284 (7.5% in mouse brain); also called native neuronal gephyrin; gephyrin (83 kDa); source: endogenous, lysates of primary hippocampal neurons (control and 2-BP-treated)
B1 was tested, and the “stoichiometry N” value was 6 and 9.
